# Source: US20200338203A1 (Bicycle, published 2020)
# Numbered stars: 1 amine (or outer) side, 2 acyl side, 3 side chain; on linkers, the order of the positions; unused ones are H or OH. Bridge positions count the residues as written; N and C are the ends. Square brackets hold non-standard residues; d marks the D form. Ends that are not written are not given here. 1Nal = N[C@@H](Cc1cccc2ccccc12)C(=O)O; TBMB = c1c(C[*:1])cc(C[*:3])cc1C[*:2]; Gly(cPent) = N[C@H](C(=O)O)C1CCCC1; hArg = N=C(N)NCCCC[C@H](N)C(=O)O; Tle = CC(C)(C)[C@H](N)C(=O)O; Aib = CC(C)(N)C(=O)O; βAla = NCCC(=O)O; Sar = CNCC(=O)O
# Target: T1, Human EphA2 (Human, UniProt P29317 24-537)
# T1 construct: extracellular domain; also called EphA2 (Ecto), Human
# T1 sequence (P29317 24-537): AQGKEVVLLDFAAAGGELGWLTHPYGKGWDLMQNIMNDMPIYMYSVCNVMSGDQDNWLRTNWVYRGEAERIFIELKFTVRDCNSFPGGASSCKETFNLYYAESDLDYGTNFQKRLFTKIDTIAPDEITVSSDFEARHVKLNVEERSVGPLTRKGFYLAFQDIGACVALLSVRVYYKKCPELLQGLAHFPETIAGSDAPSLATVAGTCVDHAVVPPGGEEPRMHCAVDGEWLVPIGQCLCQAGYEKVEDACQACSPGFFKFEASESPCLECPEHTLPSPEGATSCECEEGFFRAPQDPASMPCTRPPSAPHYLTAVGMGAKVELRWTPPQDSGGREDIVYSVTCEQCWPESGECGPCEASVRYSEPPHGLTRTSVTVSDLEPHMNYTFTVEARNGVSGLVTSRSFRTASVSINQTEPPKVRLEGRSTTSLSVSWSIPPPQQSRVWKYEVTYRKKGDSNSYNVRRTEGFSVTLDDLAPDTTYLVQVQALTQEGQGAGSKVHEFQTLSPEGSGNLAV
# Assay: FP competition; competitor: fluorescent Compound 66
# Description: (§1) Peptides without a fluorescent tag were tested in competition with a peptide with a fluorescent tag and a known Kd (Table 2). Peptides were diluted to an appropriate concentration in assay buffer as described in the direct binding assay with a maximum of 5% DMSO, then serially diluted 1 in 2. Five μL of diluted peptide was added to the plate followed by 10 μL of human or mouse EphA2 (Table 1) at a fixed concentration which was dependent on the fluorescent peptide used (Table 2), then 10 μL fluorescent peptide added. Measurements were conducted as for the direct binding assay, however the gain was determined prior to the first measurement.
row,Ki [nM],Binder
1,886,"[Sar][Sar]ACAWGPFWCPVNRPGC (linker 4-11-18 via TBMB, bicyclic peptide) [Compound 286]"
2,711,"[Sar][Sar]ACPWGPFWCPVNAPGC (linker 4-11-18 via TBMB, bicyclic peptide) [Compound 293]"

# The next lines start with the binder.
row,Binder,Ki [nM]
1,"[Sar][Sar]ACPW[dA]PFWCPVNRPGC (linker 4-11-18 via TBMB, bicyclic peptide) [Compound 296]",1000
2,"[Sar][Sar]ACPWGPFWCPANRPGC (linker 4-11-18 via TBMB, bicyclic peptide) [Compound 292]",954

# Target: T2, Human EphA2 (Ecto) (Human, UniProt P29317 24-537)
# T2 construct: extracellular domain
# T2 sequence (P29317 24-537): as above
# Assay: FP competition; competitor Compound 18
row,Ki [nM],Binder
1,0.46,[βAla][Sar][Sar][Sar][Sar][Sar][Sar][Sar][Sar][Sar][Sar]H[dD][Gly(cPent)]PCP[1Nal]G[Aib]F[1Nal]CP[Tle]NR[Aib]GC (linker 16-23-30 via TBMB) [Compound 278]
2,31.4,[βAla][Sar][Sar][Sar][Sar][Sar][Sar][Sar][Sar][Sar][Sar]H[dD]VPC[Aib]WGP[hArg]WCP[Tle]N[hArg]P[dD]C (linker 16-23-30 via TBMB) [Compound 246]
3,29.7,[βAla][Sar][Sar][Sar][Sar][Sar][Sar][Sar][Sar][Sar][Sar]H[dD]VPC[Aib]WGP[hArg]WCP[Tle]N[hArg]P[dD]C (linker 16-23-30 via TBMB) [Compound 247]
4,4.91,[βAla][Sar][Sar][Sar][Sar][Sar][Sar][Sar][Sar][Sar][Sar]H[dD]VPC[Aib][1Nal]G[Aib]F[1Nal]CP[Tle]NR[Aib]GC (linker 16-23-30 via TBMB) [Compound 239]
5,1.21,Ac-[Sar][Sar]H[dD]VTCP[1Nal]G[Aib]F[1Nal]CP[Tle]NR[Aib]GC (linker 7-14-21 via TBMB) [Compound 285]
6,1.55,[βAla][Sar][Sar][Sar][Sar][Sar][Sar][Sar][Sar][Sar][Sar]H[dD]VPCP[1Nal]G[Aib]FWCP[Tle]N[hArg]P[dD]C (linker 16-23-30 via TBMB) [Compound 265]
7,1.11,[βAla][Sar][Sar][Sar][Sar][Sar][Sar][Sar][Sar][Sar][Sar]H[dD]VPCPWG[Aib]F[1Nal]CP[Tle]N[hArg]P[dD]C (linker 16-23-30 via TBMB) [Compound 269]
8,0.54,{Ac-βAla}-[Sar][Sar][Sar][Sar][Sar][Sar][Sar][Sar][Sar][Sar]H[dD]VPCP[1Nal]G[Aib]F[1Nal]CP[Tle]NR[Aib]GC (linker 15-22-29 via TBMB) [Compound 258]
9,2.8,[βAla][Sar][Sar][Sar][Sar][Sar][Sar][Sar][Sar][Sar][Sar]H[dD]VPC[Aib][1Nal]GP[hArg][1Nal]CP[Tle]N[hArg]P[dD]C (linker 16-23-30 via TBMB) [Compound 244]
10,0.91,[βAla][Sar][Sar][Sar][Sar][Sar][Sar][Sar][Sar][Sar][Sar]H[dD]VPCP[1Nal]G[Aib]F[1Nal]CP[Tle]N[hArg][Aib][dD]C (linker 16-23-30 via TBMB) [Compound 259]
11,1.07,[βAla][Sar][Sar][Sar][Sar][Sar][Sar][Sar][Sar][Sar][Sar]H[dD]VPCP[1Nal]G[Aib]F[1Nal]CP[Tle]N[hArg]PGC (linker 16-23-30 via TBMB) [Compound 257]
12,2.98,{Ac-βAla}-[Sar][Sar][Sar][Sar][Sar][Sar][Sar][Sar][Sar][Sar]H[dD]VPC[Aib][1Nal]G[Aib]F[1Nal]CP[Tle]NR[Aib][dD]C (linker 15-22-29 via TBMB) [Compound 241]
13,1.93,[βAla][Sar][Sar][Sar][Sar][Sar][Sar][Sar][Sar][Sar][Sar]H[dD]VPCP[1Nal]G[Aib][hArg][1Nal]CP[Tle]N[hArg]P[dD]C (linker 16-23-30 via TBMB) [Compound 251]
14,0.53,{Ac-βAla}-[Sar][Sar][Sar][Sar][Sar][Sar][Sar][Sar][Sar][Sar]H[dD][Gly(cPent)]PCP[1Nal]G[Aib]F[1Nal]CP[Tle]N[hArg]P[dD]C (linker 15-22-29 via TBMB) [Compound 277]

# The next lines start with the binder.
row,Binder,Ki [nM]
1,{Ac-βAla}-[Sar][Sar][Sar][Sar][Sar][Sar][Sar][Sar][Sar][Sar]H[dD]VPCP[1Nal]G[Aib]F[1Nal]CP[Tle]NR[Aib][dD]C (linker 15-22-29 via TBMB) [Compound 260],0.75
2,[βAla][Sar][Sar][Sar][Sar][Sar][Sar][Sar][Sar][Sar][Sar]H[dD][Gly(cPent)]TCP[1Nal]G[Aib]F[1Nal]CP[Tle]N[hArg]P[dD]C (linker 16-23-30 via TBMB) [Compound 280],0.64
3,[βAla][Sar][Sar][Sar][Sar][Sar][Sar][Sar][Sar][Sar][Sar]H[dD]VPC[Aib][1Nal]GP[hArg][1Nal]CP[Tle]NR[Aib]GC (linker 16-23-30 via TBMB) [Compound 243],2.83
4,[βAla][Sar][Sar][Sar][Sar][Sar][Sar][Sar][Sar][Sar][Sar]H[dD][Gly(cPent)]TCP[1Nal]G[Aib]F[1Nal]CP[Tle]NR[Aib]GC (linker 16-23-30 via TBMB) [Compound 279],0.59
5,[βAla][Sar][Sar][Sar][Sar][Sar][Sar][Sar][Sar][Sar][Sar]H[dD]VPCP[1Nal]G[Aib][hArg][1Nal]CP[Tle]NR[Aib]GC (linker 16-23-30 via TBMB) [Compound 249],1.38
6,Ac-[Sar][Sar]H[dD]VPCP[1Nal]G[Aib]F[1Nal]CP[Tle]N[hArg]PGC (linker 7-14-21 via TBMB) [Compound 253],0.85
7,[βAla][Sar][Sar][Sar][Sar][Sar][Sar][Sar][Sar][Sar][Sar]H[dD]VPC[dA][1Nal]G[Aib]F[1Nal]CP[Tle]N[hArg]P[dD]C (linker 16-23-30 via TBMB) [Compound 248],28.4
8,[βAla][Sar][Sar][Sar][Sar][Sar][Sar][Sar][Sar][Sar][Sar]H[dD]VPC[Aib][1Nal]G[Aib]FWCP[Tle]N[hArg]P[dD]C (linker 16-23-30 via TBMB) [Compound 242],7.77
9,[βAla][Sar][Sar][Sar][Sar][Sar][Sar][Sar][Sar][Sar][Sar]H[dD]VPCP[1Nal]G[Aib][hArg][1Nal]CP[Tle]NR[Aib][dD]C (linker 16-23-30 via TBMB) [Compound 250],1.48
10,[βAla][Sar][Sar][Sar][Sar][Sar][Sar][Sar][Sar][Sar][Sar]H[dD][Gly(cPent)]PC[Aib]WG[Aib]FWCP[Tle]NR[Aib][dD]C (linker 16-23-30 via TBMB) [Compound 275],15.9
11,{Ac-βAla}-[Sar][Sar][Sar][Sar][Sar][Sar][Sar][Sar][Sar][Sar]H[dD][Gly(cPent)]PC[Aib][1Nal]G[Aib]F[1Nal]CP[Tle]NR[Aib][dD]C (linker 15-22-29 via TBMB) [Compound 274],2.28

# Target: T1, Human EphA2
# Assay: FP competition; competitor: fluorescent Compound 18
# Description: as §1
row,Ki [nM],Binder
1,1.8,"ADVHCPWGAFWCPVNRPGCA (linker 5-12-19 via TBMB, bicyclic peptide) [Compound 152]"
2,> 1000,"[Sar][Sar]ACPWGPFWCAVNRPGC (linker 4-11-18 via TBMB, bicyclic peptide) [Compound 291]"

# Second part, the binder before the results:
row,Binder,Ki [nM]
1,"ADVHCPWAPFWCPVNRPGCA (linker 5-12-19 via TBMB, bicyclic peptide) [Compound 151]",394
2,"ADVHCPWGPFWCPVN[dA]PGCA (linker 5-12-19 via TBMB, bicyclic peptide) [Compound 156]",14.9
3,"[Sar][Sar]ACPWAPFWCPVNRPGC (linker 4-11-18 via TBMB, bicyclic peptide) [Compound 288]",> 1000
4,"Ac-[Sar][Sar]A[dD]VTCPWGPAWCPVNRPGC (linker 7-14-21 via TBMB, bicyclic peptide) [Compound 173]",6.69
5,"ADVHCPWGPFWCPV[dA]RPGCA (linker 5-12-19 via TBMB, bicyclic peptide) [Compound 155]",2
